Reference: patent US8883973B2

Target: human FcRn (complex of His-tagged FcRn alpha chain with beta 2 microglobulin) (human) (UniProt P55899)
Experiment: SPR (Biacore), human FcRn on chip, pH 6.0

Row | fold FcRn binding (fold of Ka* relative to WT IgG1) | fold FcRn binding (fold of Ka* relative to WT) | Substance
1 | 3.5 fold |  | 257N IgG1 anti-VEGF antibody
2 |  | 17.3 fold | 428L/434S IgG1 anti-VEGF antibody
3 | 3.4 fold |  | 257L IgG1 anti-VEGF antibody
4 |  | 3.8 fold | 434S IgG1 anti-VEGF antibody
